Measurements: patent publication US20260226173A1, “COMPOSITIONS INCLUDING ANTI-WT-1 ANTIBODIES & ANTIGEN BINDING FRAGMENTS AND USES THEREOF” (Memorial Sloan-Kettering Cancer Center, priority 2023, published 2026)

Target: HLA-A2-negative cells (HL-60, K562, primary AML 120B, normal cells of HLA-A2-negative donors)
Test: cell-based or functional assay

- Reduction of CD33+ cells (%), AbTCR-CSR #34 T cells (with anti-CD33 CSR), primary AML 120B (HLA-A*02:01 -): 2.3%
B1: ESK2 caTCR clone #34 (AbTCR), expressed on primary T cells (protein)
VH: QVQLVQSGTEVRKPGASLKVSCTTSGYIFTGYYIHWVRQVPGQGLEWMGWINPNSGVTEFAQGFQGRITMTRDTSTSTVYMELSRLTSDDTAVYYCAREGVWGYYDSWGQGTLVTVSS
VL: SSELTQDPAVSVALGQTVRITCQGDSLRSYYASWYQQKPGQAPVLVIYDKNNRPSGIPDRFSGSSSGNTASLTITGAQAEDEADYYCNSRDSSGNHHVVFGGGTKLTVLG
